Biological target: T1, FLAG-Mdm2 (UniProt Q00987 1-491)
T1 construct: Mdm2, E3 ubiquitin ligase; source: HEK-293, transfected, in nuclear and cytoplasmic fractions
Assay: co-IP; HEK-293 cells transfected with D2R, GRK2 and FLAG-Mdm2; vehicle or 10 μM dopamine for 2 min; nuclear and cytoplasmic fractions each immunoprecipitated with FLAG beads; blot for GRK2
Settings: partners not purified

T1 sequence (Q00987 whole entry): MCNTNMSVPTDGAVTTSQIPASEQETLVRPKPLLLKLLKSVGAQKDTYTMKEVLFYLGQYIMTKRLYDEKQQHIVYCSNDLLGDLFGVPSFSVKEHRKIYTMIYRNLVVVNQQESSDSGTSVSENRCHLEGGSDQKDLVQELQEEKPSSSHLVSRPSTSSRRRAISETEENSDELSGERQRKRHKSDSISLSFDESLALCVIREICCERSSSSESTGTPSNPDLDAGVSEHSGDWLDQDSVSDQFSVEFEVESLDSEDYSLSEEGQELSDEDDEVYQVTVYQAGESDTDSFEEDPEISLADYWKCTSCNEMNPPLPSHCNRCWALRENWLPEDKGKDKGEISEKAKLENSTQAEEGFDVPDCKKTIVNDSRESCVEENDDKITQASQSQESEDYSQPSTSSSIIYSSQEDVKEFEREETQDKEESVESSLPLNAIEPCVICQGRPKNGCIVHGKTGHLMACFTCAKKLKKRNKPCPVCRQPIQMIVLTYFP

ratio of band intensities in the blot, DA(+)/CF group against the DA(−)/CF group (1.0): 2.4
B1: GRK2 (enzyme, UniProt P25098 1-689, looked up)
chain: MADLEAVLADVSYLMAMEKSKATPAARASKKILLPEPSIRSVMQKYLEDRGEVTFEKIFSQKLGYLLFRDFCLNHLEEARPLVEFYEEIKKYEKLETEEERVARSREIFDSYIMKELLACSHPFSKSATEHVQGHLGKKQVPPDLFQPYIEEICQNLRGDVFQKFIESDKFTRFCQWKNVELNIHLTMNDFSVHRIIGRGGFGEVYGCRKADTGKMYAMKCLDKKRIKMKQGETLALNERIMLSLVSTGDCPFIVCMSYAFHTPDKLSFILDLMNGGDLHYHLSQHGVFSEADMRFYAAEIILGLEHMHNRFVVYRDLKPANILLDEHGHVRISDLGLACDFSKKKPHASVGTHGYMAPEVLQKGVAYDSSADWFSLGCMLFKLLRGHSPFRQHKTKDKHEIDRMTLTMAVELPDSFSPELRSLLEGLLQRDVNRRLGCLGRGAQEVKESPFFRSLDWQMVFLQKYPPPLIPPRGEVNAADAFDIGSFDEEDTKGIKLLDSDQELYRNFPLTISERWQQEVAETVFDTINAETDRLEARKKAKNKQLGHEEDYALGKDCIMHGYMSKMGNPFLTQWQRRYFYLFPNRLEWRGEGEAPQSLLTMEEIQSVEETQIKERKCLLLKIRGGKQFILQCDSDPELVQWKKELRDAYREAQQLVQRVPKMKNKPRSPVVELSKVPLVQRGSANGL
notes: GPCR kinase 2 (GRK2), plasmid without a named tag; detected with antibodies against GRK2; also called GPCR kinase 2; source: HEK-293, transfected, in nuclear and cytoplasmic fractions
